Test results published in US10758526B2, “Combination therapies using agents that target tumor-associated stroma or tumor cells and other pathways” (BIOMED VALLEY DISCOVERIES, INC., priority 2014, dated 2020).
Positions count from the first letter of the chain named. Square brackets hold non-standard residues; d marks the D form. Peptide text beside a SMILES is read from it. * marks the point of attachment. Dolaproine = CO[C@@H]([C@@H]1CCCN1)[C@@H](C)C(=O)O; Dil = CC[C@H](C)[C@H](NC)[C@@H](CC(=O)O)OC; X1 = C[C@@H](N*)[C@@H](O)c1ccccc1; NMeV = CN[C@H](C(=O)O)C(C)C

T1: mTEM8-Fc (Mus musculus, UniProt Q9CZ52)
T1 construct: Fc
T1 sequence (Q9CZ52 31-319 limits assumed): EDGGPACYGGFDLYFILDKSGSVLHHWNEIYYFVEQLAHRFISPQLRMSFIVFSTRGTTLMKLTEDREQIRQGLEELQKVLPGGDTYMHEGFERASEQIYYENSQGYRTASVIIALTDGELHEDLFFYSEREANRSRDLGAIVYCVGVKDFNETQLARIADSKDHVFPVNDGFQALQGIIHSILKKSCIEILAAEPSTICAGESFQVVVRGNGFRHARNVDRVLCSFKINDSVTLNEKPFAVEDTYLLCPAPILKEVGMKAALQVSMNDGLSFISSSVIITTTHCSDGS

T2: hTEM8-AP (Homo sapiens, UniProt Q9H6X2)
T2 sequence (Q9H6X2 33-321 limits assumed): T1 sequence (Q9CZ52 31-319 limits assumed) with R40K, S104R, A241S

B1: M863: TEM8 monoclonal antibody (hIgG1), VH SEQ ID NO:7 and VL SEQ ID NO:8 (antibody, V domains shown)
VH: EVQLVETGAEVKKPGASVKVSCKASGYTFTGYYMHWVRQAPGQGLEWMGWINPTSGSTNYAQKFQGRVTMTRDTSISTAYMELSGLRSDDTAVYYCVRDPGSPKWLAFDPWGQGTLVTVSS
VL: DIQLTQSPSSLSASVGDRVTITCRASRAISRYLNWYQQKPGKAPKLLIYAASSLQSGVSSRFSGSGSGTEFTLTISSLQPEDFATYFCQQTYSPPITFGQGTRLEIKR
modifications: TEM863 mAb VH; TEM863 mAb VL

Assays:
[1] = system: OVCAR3 ovarian cancer model; experiment: M825 and M825-MMAE in OVCAR3 ovarian cancer model; format: in vivo, mice; details: 0.2 mg/kg, equivalent to maximum MMAE in the 10 mg/kg ADC group
Description: Treatment initiated when tumor volume reached approximately 120 mm^3. M825 was given i.v. at 10 mg/kg and M825-MMAE was given i.v. at 1, 3, or 10 mg/kg, 2 times per week for 3.5 weeks. […] The 10 mg/kg ADC group was redosed on Day 56, 2 times per week.

mTEM8-Fc = target: T1, mTEM8-Fc; experiment: Biocore affinity measurement of anti-TEM8 Fabs, mTEM8-Fc; format: binding
hTEM8-AP = target: T2, hTEM8-AP; experiment: Biocore affinity measurement of anti-TEM8 Fabs, hTEM8-AP; format: binding
[2] = Pharmacokinetics of TEM8 antibodies in mouse, single dose; format: in vivo
Description: (§1) Tables 8 and 9 show pharmacokinetic properties of TEM8 antibodies according to the present invention in mouse for single dose (Table 8) and multiple dose (Table 9) treatments.

[3] = Pharmacokinetics of TEM8 antibodies in mouse, multiple dose; format: in vivo
Description: as §1

3T3 fibroblasts = experiment: Contractility of 3T3 fibroblasts in the presence of TGFb-1; format: cell-based; details: in vitro
Description: 3T3 cells were cultured and contractility in the presence of TGFb-1 was measured in control or M825 exposed cells. […] Contractile forces are thought to contribute to increased cancer cell invasion.

| Molecule | AUCI ([2]; 5 mg/kg) [µg·h/mL] | AUCT ([2]; 5 mg/kg) [µg·h/mL] | CLF ([2]; 5 mg/kg) [mL/h/kg] | CMAX ([2]; 5 mg/kg) [ng/mL] | HALF ([2]; 5 mg/kg) [h] | KEL ([2]; 5 mg/kg) [h⁻¹] | TMAX ([2]; 5 mg/kg) [h] | VZF ([2]; 5 mg/kg) [L/kg] | AUCT ([2]; 15 mg/kg) [µg·h/mL] | CMAX ([2]; 15 mg/kg) [ng/mL] | TMAX ([2]; 15 mg/kg) [h] | AUCI ([3]; 5 mg/kg) [µg·h/mL] | AUCT ([3]; 5 mg/kg) [µg·h/mL] | CLF ([3]; 5 mg/kg) [mL/h/kg] | CMAX ([3]; 5 mg/kg) [ng/mL] | HALF ([3]; 5 mg/kg) [h] | KEL ([3]; 5 mg/kg) [h⁻¹] | TMAX ([3]; 5 mg/kg) [h] | VZF ([3]; 5 mg/kg) [L/kg] | AUCI ([3]; 15 mg/kg) [µg·h/mL] | further results |
| --- | --- | --- | --- | --- | --- | --- | --- | --- | --- | --- | --- | --- | --- | --- | --- | --- | --- | --- | --- | --- | --- |
| CC[C@H](C)[C@@H]([C@@H](CC(=O)N1CCC[C@H]1[C@H](OC)[C@@H](C)C(=O)N[C@H](C)[C@@H](O)c1ccccc1)OC)N(C)C(=O)[C@@H](NC(=O)[C@@H](NC)C(C)C)C(C)C [MMAE, monomethylauristatin (MMAE), reference compound] (H-[NMeV]V[Dil][Dolaproine]-X1) | – | – | – | – | – | – | – | – | – | – | – | – | – | – | – | – | – | – | – | – | effect on tumor growth [1]: No effect |
| M825: TEM8 monoclonal antibody (hIgG1), VH SEQ ID NO:1 and VL SEQ ID NO:2 | 1310.519 | 1310.222 | 3.82 | 46800 | 6.03 | 0.1149 | 3 | 0.03319 | 8991.767 | 144000 | 3 | 1408.345 | 1408.201 | 3.55 | 54300 | 9.10 | 0.0762 | 3 | 0.04661 | 21649.446 | ka (mTEM8-Fc): 1.7e+06 M⁻¹ s⁻¹; kd (mTEM8-Fc): 8.942e-05 s⁻¹; ka (hTEM8-AP): 3.05e+06 M⁻¹ s⁻¹; kd (hTEM8-AP): 0.0001802 s⁻¹; AUCI ([2]; 15 mg/kg): 9239.202 µg·h/mL; CLF ([2]; 15 mg/kg): 1.62 mL/h/kg; HALF ([2]; 15 mg/kg): 23.77 h; KEL ([2]; 15 mg/kg): 0.0292 h⁻¹; VZF ([2]; 15 mg/kg): 0.05566 L/kg; AUCT ([3]; 15 mg/kg): 21648.879 µg·h/mL; CLF ([3]; 15 mg/kg): 0.69 mL/h/kg; CMAX ([3]; 15 mg/kg): 314000 ng/mL; HALF ([3]; 15 mg/kg): 17.05 h; KEL ([3]; 15 mg/kg): 0.0406 h⁻¹; TMAX ([3]; 15 mg/kg): 3 h; VZF ([3]; 15 mg/kg): 0.01705 L/kg; contractility of activated 3T3 fibroblasts (3T3 fibroblasts): block the contractility |
| B1 | 1330.847 | 1330.742 | 3.76 | 51300 | 8.59 | 0.0807 | 3 | 0.04656 | 10721.535 | 355000 | 3 | 1425.735 | 1425.565 | 3.51 | 58600 | 14.29 | 0.0485 | 3 | 0.07228 | 7272.672 | AUCT ([3]; 15 mg/kg): 7271.7 µg·h/mL; CLF ([3]; 15 mg/kg): 2.06 mL/h/kg; CMAX ([3]; 15 mg/kg): 147000 ng/mL; HALF ([3]; 15 mg/kg): 12.64 h; KEL ([3]; 15 mg/kg): 0.0549 h⁻¹; TMAX ([3]; 15 mg/kg): 3 h; VZF ([3]; 15 mg/kg): 0.0376 L/kg |
